Reference: patent US20160054331A1

Molecular target: Hexa-His tag amidated peptide HHHHHH-CONH2
Test: peptides on microspheres, PE anti-mouse IgG, Luminex

binding remaining after amidation of the C terminus (percent): < 15%
Substance: anti-C-term His tag antibody 3D5 (Invitrogen, Carlsbad, Calif.)
